Experimental findings from article PMC11446282 are described below.

In this assay the target is fluorescent peptide probe FITC-PEG2-…-Nle-IKKLEW. Kind of assay: fluorescence polarisation. On the technique in general: In fluorescence polarisation assays a small probe gives low polarisation when free and higher when bound to something large.

As a reminder, the Kd is the free concentration of one partner at which half of the binding sites on the other are occupied at equilibrium, for simple one-to-one binding. Read a low Kd as tighter binding.

Sequence of B55α (His-Strep-TEV fusion protein) (P63151 whole entry, the tested form may be a part): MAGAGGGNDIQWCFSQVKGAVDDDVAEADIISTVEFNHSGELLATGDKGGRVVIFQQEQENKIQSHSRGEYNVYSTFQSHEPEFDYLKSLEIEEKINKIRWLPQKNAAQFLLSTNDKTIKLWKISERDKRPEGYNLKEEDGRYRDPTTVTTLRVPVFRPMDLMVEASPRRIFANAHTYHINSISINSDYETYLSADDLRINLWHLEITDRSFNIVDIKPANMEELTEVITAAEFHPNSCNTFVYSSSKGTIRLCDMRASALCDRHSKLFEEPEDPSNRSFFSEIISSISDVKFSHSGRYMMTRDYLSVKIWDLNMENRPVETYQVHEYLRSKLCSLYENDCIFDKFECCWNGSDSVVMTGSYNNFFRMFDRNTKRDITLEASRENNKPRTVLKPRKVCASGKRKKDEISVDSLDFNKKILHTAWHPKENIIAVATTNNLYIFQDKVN

Turning to “B55α (His-Strep-TEV fusion protein) (from UniProt P63151 1-447) (natural protein)”, the Kd came to 6 nM.
